Experimental findings from PMC5443838, “Peripherin-2 and Rom-1 have opposing effects on rod outer segment targeting of retinitis pigmentosa-linked peripherin-2 mutants” (Scientific Reports, 2017) are described below.

Positions count from the first letter of the chain named. Names and notes keep the numbering of the source. Values joined by “and” are separate entries in the source; they are usually repeats but may differ in a detail not shown here. Identical values can stand only once.

The chains are these.
B1: citrine- or cerulean-tagged per^WT (FRET construct, HEK293T) (natural protein, human, UniProt P23942 1-346, looked up)
chain: MALLKVKFDQKKRVKLAQGLWLMNWFSVLAGIIIFSLGLFLKIELRKRSDVMNNSESHFVPNSLIGMGVLSCVFNSLAGKICYDALDPAKYARWKPWLKPYLAICVLFNIILFLVALCCFLLRGSLENTLGQGLKNGMKYYRDTDTPGRCFMKKTIDMLQIEFKCCGNNGFRDWFEIQWISNRYLDFSSKEVKDRIKSNVDGRYLVDGVPFSCCNPSSPRPCIQYQITNNSAHYSYDHQTEELNLWVRGCRAALLSYYSSLMNSMGVVTLLIWLFEVTITIGLRYLQTSLDGVSNPEESESESQGWLLERSVPETWKAFLESVKKLGKGNQVEAEGADAGQAPEAG
notes: peripherin-2 (PRPH2), human, wild type; in the 'per^WT only' FRET pair the two copies differ in the fluorophore; also called per^WT only; source: HEK293T, transiently co-transfected, in living cells
B2: C-terminally myc- or flag-tagged per^WT (SDGC construct) (natural protein, human, UniProt P23942 1-346, looked up)
chain: B1 chain
notes: peripherin-2 (PRPH2), human, wild type; also called per^WT only; source: HEK293T, transiently transfected, in lysate (0.5% Triton X-100)
B3: citrine- or cerulean-tagged per^C214S (FRET construct, HEK293T) (natural protein, human, UniProt P23942 1-346, looked up)
chain: B1 chain with C214S
notes: peripherin-2 (PRPH2), human, adRP-linked mutant C214S; in the 'per^C214S only' FRET pair the two copies differ in the fluorophore; also called per^C214S only; per^MT; source: HEK293T, transiently co-transfected, in living cells
B4: C-terminally myc- or flag-tagged per^C214S (SDGC construct) (natural protein, human, UniProt P23942 1-346, looked up)
chain: B1 chain with C214S
notes: peripherin-2 (PRPH2), human, adRP-linked mutant C214S; also called per^C214S only; per^MT; source: HEK293T, transiently transfected, in lysate (0.5% Triton X-100)
B5: citrine- or cerulean-tagged per^P210L (FRET construct, HEK293T) (natural protein, human, UniProt P23942 1-346, looked up)
chain: B1 chain with P210L
notes: peripherin-2 (PRPH2), human, adRP-linked mutant P210L; in the 'per^P210L only' FRET pair the two copies differ in the fluorophore; also called per^P210L only; per^MT; source: HEK293T, transiently co-transfected, in living cells

The target in data set [1] is T1, citrine- or cerulean-tagged Rom-1 (FRET construct, HEK293T) (human, UniProt Q03395 1-351).
T1 construct: Rom-1, homolog of peripherin-2; 'the single human peripherin-2 and Rom-1 transgenes'; source: HEK293T, transiently co-transfected, in living cells
T1 sequence (Q03395 whole entry): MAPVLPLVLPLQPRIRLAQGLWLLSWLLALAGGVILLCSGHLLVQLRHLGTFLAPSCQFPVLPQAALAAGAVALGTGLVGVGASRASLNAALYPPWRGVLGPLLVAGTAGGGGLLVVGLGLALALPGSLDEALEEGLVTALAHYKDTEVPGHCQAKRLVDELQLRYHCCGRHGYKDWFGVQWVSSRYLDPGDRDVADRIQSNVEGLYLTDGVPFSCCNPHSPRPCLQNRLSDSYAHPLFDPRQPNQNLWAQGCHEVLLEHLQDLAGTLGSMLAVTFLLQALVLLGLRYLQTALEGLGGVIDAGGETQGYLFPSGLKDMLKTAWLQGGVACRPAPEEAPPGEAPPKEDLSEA
In words: FRET or BRET; 3 cube FRET in living co-transfected HEK293T cells; FRET imaging solution (140 mM NaCl, 5 mM KCl, 2 mM CaCl2, 1 mM MgCl2, 10 mM glucose, 10 mM HEPES, pH 7.4), RT; EAmax from the binding curve of apparent FRET efficiency against the cerulean/citrine molar ratio. To be noted: partners not purified.

Data set [2] concerns the molecule itself. The description is as above.
Data set [3] deals with the molecule itself. The experiment in a line: sucrose density gradient centrifugation; lysate of transfected HEK293T cells (0.5% Triton X-100, 150 mM NaCl, 2 mM CaCl2) on a 5-20% sucrose gradient with 0.1% Triton X-100 and 10 mM N-ethylmaleimide, 46,700 rpm, 2 h, 4 °C; 11 fractions immunoblotted with myc- or flag-specific antibodies under non-reducing conditions; DNA standards for size.

In data set [4] the target is B1. The experiment in a line: FRET or BRET; 3 cube FRET in living co-transfected HEK293T cells; FRET imaging solution (140 mM NaCl, 5 mM KCl, 2 mM CaCl2, 1 mM MgCl2, 10 mM glucose, 10 mM HEPES, pH 7.4), RT; EAmax from the binding curve of apparent FRET efficiency against the cerulean/citrine molar ratio. To be noted: partners not purified. (Bioluminescence resonance energy transfer reports proximity on the nanometre scale.)

Consider B1, for which the “EAmax (maximal FRET efficiency)” value is 15.6% in data set [1] and 34.2% in data set [2].
As for B2, in data set [3], the “stoichiometry N” value was 4 and 8.
Turning to B3, the “EAmax (maximal FRET efficiency)” value in data set [1] came to 6.32%; in data set [4] it was 8.58%; in data set [2], 26.5%.
As to B4, the “stoichiometry N” value in data set [3] amounted to 2.
As to B5, the entries for the “EAmax (maximal FRET efficiency)” value in data set [1], in data set [4] and in data set [2] were 6.58%, 9.44% and 30.7%, respectively.

The stoichiometry N is a count of units in the complex or per binding partner.
